Test results published in paper PMC5042466, “Irreversible Inhibition of Glutathione S-Transferase by Phenethyl Isothiocyanate (PEITC), a Dietary Cancer Chemopreventive Phytochemical” (PLoS ONE, 2016).

Target: the molecule itself
Assay: crystal structure; hGSTA1 (13 mg/ml) mixed with GSH and PEITC, 6 h at 4°C; sitting drop, 20% PEG 3350, 0.2 M sodium acetate; 1.93 Å, space group C2

B1: human alpha class glutathione S-transferase of subunit type 1 (hGSTA1), Cys112-PEITC adduct, with GS-PEITC bound (enzyme)
chain: AEKPKLHYFNARGRMESTRWLLAAAGVEFEEKFIKSAEDLDKLRNDGYLMFQQVPMVEIDGMKLVQTRAILNYIASKYNLYGKDIKERALIDMYIEGIADLGEMILLLPVCPPEEKDAKLALIKEKIKNRYFPAFEKVLKSHGQDYLVGNKLSRADIHLVELLYYVEELDSSLISSFPLLKALKTRISNLPTVKKFLQPGSPRKPPMDEKSLEEARKIFRF
modifications: Cys112 side chain covalently modified by PEITC (phenethyl isothiocyanate)
notes: glutathione S-transferase alpha 1 (hGSTA1), human; In the crystal the active site holds the small-molecule product GS-PEITC; also called hGSTA1-PEITC; hGSTA1:GS-PEITC; source: prepared as described [11,12]
binding result: binds
